The source of these data is patent US12324827B2, “Combination therapy for the treatment of migraines” (The University of Chicago, priority 2019, dated 2025).

“Also recorded” adds a separate entry of the source.

A short description of data set [1]: Blood glucose after nose-to-brain (N2B) delivery of IGF-1. It is filed as in vivo, Wistar rats. The note with it: for blood glucose level: n=4/group; for hypoglycemia: after nasal (N2B) delivery of IGF-1. The method, then: N2B delivery of 150 μg human recombinant IGF-1 (#191-G1; R&D Systems, Minneapolis, MN) in 50 μL sodium succinate buffer followed the previously described approach (21,51) that was based on the techniques of Liu and coworkers (24) in the recording laboratory under isoflurane anesthesia with spontaneous ventilation.
Blood glucose was monitored in a subset of animals. Immediately before N2B treatments and while anesthetized, blood glucose was sampled at time zero using a sterile, 27 gauge hypodermic needle to puncture the tip of the tail. A second drop of blood from punctures was used for glucose measurements (Contour Next EZ; Ascensia Diabetes Care, US, Inc.; Parsippany, NJ). After N2B treatments (IGF-1 or vehicle), animals were briefly re-anesthetized and maintained as above for each blood draw done over time (i.e., 0.3, 3, 6, and 24 hours).

A further data set relates to trigeminal ganglion CGRP. Description: CGRP immunostaining of trigeminal ganglion (V1) in naïve animals 24 hours after N2B IGF-1. It is filed as in vivo, rat. The method, then: 24 hours later animals were re-anesthetized, brains harvested and processed for CGRP immunostaining of the TG. Images were obtained from each animal and image fluorescence intensity quantified via a digital imaging strategy. Three images were measured per animal and the averages recorded. Nasal delivery and image processing was completed while blinded to conditions. Experiments, immunostaining and imaging were done in pairs (i.e., sham and IGF-1) to reduce potential variability. […] This reduction was significant (p<0.001; alpha=0.05; power of 1.00). Scale bar=50 μm. […]
The inventors used computer-based and blinded semi-quantitative digital quantification of immunostaining metrics to test the ability of N2B IGF-1 to impact TS activation. […]
Imaging was performed using a Photometrics self-calibrating digital camera QuantEM-512SC camera (500×500 pixels; Photometrics, Tucson, AZ) run on MetaMorph software (v. 7.0.4; Molecular Devices, Sunnyvale, CA) under blinded conditions (as previously described (13, 20-22). Image exposure, camera gain and thresholding were uniformly set (i.e., equivalently for experimental and sham groups for each imaging metric (i.e., MDA, CGRP and c-fos). Resultant images were digitally stored as TIFF files for subsequent analyses that continued under blinded conditions where image integrated fluorescence intensity was registered using MetaMorph software for MDA and CGRP. […]

For the substance “IGF-1: human recombinant IGF-1 (#191-G1; R&D Systems), 150 μg in 50 μL sodium succinate buffer, delivered nose-to-brain”, the blood glucose level stood at 196 ± 22 mg/dL in data set [1] (0.3-hour after N2B IGF-1 150 μg, non-fasted rats); 114 ± 14 mg/dL in data set [1] (3.0-hour after N2B IGF-1 150 μg); 134 ± 7 mg/dL in data set [1] (6.0-hour after N2B IGF-1 150 μg); 150 ± 40 mg/dL in data set [1] (24-hour after N2B IGF-1 150 μg). Further, the hypoglycemia result in data set [1] is given as “did not induce hypoglycemia; also recorded: did not see evidence of hypoglycemia; also recorded: did not evoke hypoglycemia; also recorded: no evidence of hypoglycemia; also recorded: did not cause hypoglycemia; also recorded: no hypoglycemic effect; also recorded: did not trigger hypoglycemia”; in data set [1] (listed as insulin-like growth factor-1), “no impact on blood glucose levels occurred”. Also, in data set [1] (normal range for Wistar rats 85-132 mg/dL, control 132 mg/dL at time 0), the “lowest IGF-1 glucose-related level seen” value is listed as 114 mg/dL. Moreover, the “reduction of CGRP levels in the trigeminal ganglion of naïve animals” value in the data set on trigeminal ganglion CGRP (N2B IGF-1 150 μg versus sham, 24 hours, p<0.001) is reported as around 75%. For the same substance, the “natural logarithm ratio (IGF-1/sham) of CGRP immunostaining, naïve animals” value in the data set with trigeminal ganglion CGRP (n=7/group) is −1.66±0.32.
